Earlier results in publication PMC9659328.

Target: thrombin (Homo sapiens) (UniProt P00734)

Kd: 2 nM
Substance: thrombomodulin (from UniProt P07204)
